T1: Transmembrane-4 L six family member-1 (TM4SF1) (human, UniProt P30408 1-202, limits assumed)
T1 construct: also called hTM4SF1; human TM4SF1
T1 sequence: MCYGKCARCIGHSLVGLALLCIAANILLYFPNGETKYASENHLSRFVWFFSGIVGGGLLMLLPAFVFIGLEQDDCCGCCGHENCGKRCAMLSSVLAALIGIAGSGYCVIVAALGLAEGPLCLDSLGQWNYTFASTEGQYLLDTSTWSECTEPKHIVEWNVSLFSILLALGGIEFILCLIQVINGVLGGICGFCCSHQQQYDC


tested on: not given; test: not given; conditions: treatment with CA4P; cited from earlier work

| Molecule | Patients who experienced heart attacks while being treated |
| --- | --- |
| COc1ccc(/C=C\c2cc(OC)c(OC)c(OC)c2)cc1OP(=O)(O)O [CA4P, Combretastatin] | seven |

target: T1, Transmembrane-4 L six family member-1 …; test: antibody screen (method not described in this filing); conditions: not given

| binding result | Molecule |
| --- | --- |
| binds | monoclonal murine antibody AGX-A09 (antibody, V domains shown, Murine monoclonal antibody) VH: EVQLQQSGPELVKPGASVKMSCKASGYTFSSYVMHWVKQKPGQGLEWIGYINPYSDVTNYNEKFKGKATLTSDRSSNTAYMELSSLTSEDSAVYYCARNYFDWGRGTLVTVSA VL: DIQMTQSPASLSASVGETVTITCRASKNVYSYLAWFQQKQGKSPQLLVYNAKTLAEGVPSRFSGGGSGTQFSLKINSLQPADFGSYYCQHHYNIPFTFGSGTKLEIK |
| binds | monoclonal murine antibody AGX-A07 (antibody, V domains shown, The humanized A07 variants (A07-YTEC etc.) used in the ADC killing assays are different molecules and are not entered) VH: QIQLVQSGPELKKPGETVKISCKASGYTFTNYGVKWVKQAPGKDLKWMGWINTYTGNPIYAADFKGRFAFSLETSASTAFLQINNLKNEDTATYFCVRFQYGDYRYFDVWGAGTTVTVSS VL: QIILSQSPAILSASPGEKVTMTCRANSGISFINWYQQKPGSSPKPWIYGTANLASGVPARFGGSGSGTSYSLTISRVEAEDAATYYCQQWSSNPLTFGAGTKLELR |
| binds | monoclonal murine antibody AGX-A04 (antibody, V domains shown, Murine monoclonal antibody) VH: EVQLQQSGPELVKPGASVKISCKTSGYTFTDYTMHWVRQSHGKSLEWIGSFNPNNGGLTNYNQKFKGKATLTVDKSSSTVYMDLRSLTSEDSAVYYCTRIRATGFDSWGQGTTLTVSS VL: DIVMSQSPSSLAVSAGEKVTMSCKSSQSLLNSRTRKNYLAWYQQKPGQSPKLLIYWASTRESGVPDRFTGSGSGTDFTLTISNVQAEDLTVYYCKQSYNPPWTFGGGTKLEIK |
| binds | monoclonal murine antibody AGX-A03 (antibody, V domains shown, Murine monoclonal antibody) VH: QIQLVQSGPELKKPGETVKISCKASGYSFRDYGMNWVKQAPGRTFKWMGWINTYTGAPVYAADFKGRFAFSLDTSASAAFLQINNLKNEDTATYFCARWVSYGNNRNWFFDFWGAGTTVTVSS VL: DVLMTQTPLSLPVRLGDQASISCRSSQTLVHSNGNTYLEWYLQKPGQSPKLLIYKVSNRLSGVPDRFSGSGSGTDFTLKISRVETEDLGVYYCFQGSHGPWTFGGGTKLEIK |
| binds | monoclonal murine antibody AGX-A05 (antibody, V domains shown, Murine monoclonal antibody) VH: EVQVQQSGPELVKPGASVKMSCKASGYTFTSYVMHWVKQKPGQGLEWIGYINPNNDNINYNEKFKGKASLTSDKSSNTVYMELSSLTSEDSAVYYCAGYGNSGANWGQGTLVTVSA VL: DIQMTQSPASLSASVGETVTITCRTSKNIFNFLAWYHQKQGRSPRLLVSHTKTLAAGVPSRFSGSGSGTQFSLKINSLQPEDFGIYYCQHHYGTPWTFGGGTKLEIK |
| binds | monoclonal murine antibody AGX-A08 (antibody, V domains shown, Murine monoclonal antibody) VH: EVQLQQSGPELVKPGASVKLSCKASGYTVTSYVMHWVKQKPGQGLEWIGYINPYSDVTNCNEKFKGKATLTSDKTSSTAYMELSSLTSEDSAVYYCSSYGGGFAYWGQGTLVTVSA VL: DIQMTQSPASLSASVGEPVTITCRASKNIYTYLAWYHQKQGKSPQFLVYNARTLAGGVPSRLSGSGSVTQFSLNINTLHREDLGTYFCQHHYDTPYTFGGGTNLEIK |

Source: US20230372518A1, “ANTIMITOTIC TETRAPEPTIDE-ANTIBODY CONJUGATES AND METHODS OF USING SAME” (Angiex, Inc., priority 2020, published 2023)
